Consider 3 molecules from patent publication US6468985B1, “Retinoblastoma protein-interacting zinc finger proteins” (The Burnham Institute, priority 1994, dated 2002).

Assay [1] concerns SK-MEL-23 melanoma cell line. As to the kind of experiment: RIZ D283 allele transcript expression after demethylating agent. The class given is cell-based, human. The conditions noted are these: 3 uM, cultured 3 to 6 days. The protocol: RNA samples from the 20 heterozygous melanoma cell lines were sequenced to determine if both alleles were transcribed in the cell or if only one allele was transcribed (ie. monoallelic expression). Sequencing was performed on DNA products produced by reverse transcription-PCR (RT-PCR) amplification using specific RIZ primers. RT-PCR amplification was performed according to the manufacturer's instructions (GeneAmp RNA PCR kit; Perkin Elmer). A 640 bp fragment encoding RIZ exons 5-7 was obtained from transcription of 1 μg of total RNA using the SSO 82 primer (SEQ ID NO: 93) and PCR amplification using the SSO 24 primer (5′[…]3′; SEQ ID NO: 106) and the SSO 82 primer (SEQ ID NO: 93). The amplified fragment was gel purified and sequenced using primer SSO 82 and a CircumVent™ Thermal Cycle DNA Sequencing kit (New England Biolabs; Beverly Mass.). The sequencing products were analyzed on a […] sequencing gel.
The SK-MEL-23 melanoma cell line was cultured for 3 to 6 days with 3 uM of the demethylating agent 5-azacytidine.

For the next assay, the target named is T1, 56 kD fragment of Rb (Homo sapiens, UniProt P06400).
T1 construct: p56 Rb: 56 kD fragment of Rb from a.a. position 379-928; made in house
T1 sequence (P06400 379-928): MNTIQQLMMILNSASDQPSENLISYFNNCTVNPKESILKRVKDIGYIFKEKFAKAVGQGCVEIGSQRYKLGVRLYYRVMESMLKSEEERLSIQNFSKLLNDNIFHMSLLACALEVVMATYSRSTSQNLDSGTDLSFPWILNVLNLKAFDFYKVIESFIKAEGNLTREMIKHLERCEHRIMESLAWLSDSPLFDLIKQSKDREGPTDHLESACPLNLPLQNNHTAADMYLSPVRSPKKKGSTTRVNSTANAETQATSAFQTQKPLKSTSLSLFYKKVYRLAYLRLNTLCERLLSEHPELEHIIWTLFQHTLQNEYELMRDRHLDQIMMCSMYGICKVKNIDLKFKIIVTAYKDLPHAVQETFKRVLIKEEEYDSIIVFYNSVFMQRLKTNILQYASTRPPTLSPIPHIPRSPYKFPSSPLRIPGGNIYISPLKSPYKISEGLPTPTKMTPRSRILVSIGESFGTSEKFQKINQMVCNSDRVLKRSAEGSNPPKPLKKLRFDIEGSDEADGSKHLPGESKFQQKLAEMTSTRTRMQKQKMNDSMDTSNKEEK
The assay can be described thus: binding of 35S-labeled RIZ fragments to 56 kD Rb, immunoprecipitation with anti-Rb antiserum. The protocol:
To characterize the interaction between RIZ and Rb, a ^35S-labeled fragment of rat RIZ from amino acid position 245-883 (RIZ (245-883)) was produced by subcloning the 1.9 kb insert of clone 7.1 into PBKS+ (Stratagene) to yield plasmid pBKS+7.1. […] The larger size obtained by SDS-PAGE is likely due to anomalous mobility of the RIZ fragment on the gel.
A 56 kD fragment of Rb produced by bacterial expression from p56Rb plasmid, as described previously (Huang et al., supra, 1991), was tested for binding to radiolabeled RIZ (245-883). Binding was detected by immunoprecipitation with an anti-Rb antiserum and Protein A-Sepharosew™ (Huang et al., supra, 1990), which is incorporated herein by reference; and Huang et al., supra, 1991) followed by SDS-PAGE and autoradiography (see Harlow and Lane, supra, 1988). The rabbit anti-Rb antiserum was produced to purified p56Rb using previously described methods (see Harlow and Lane, supra, 1988).
The amount of binding of RIZ by Rb in the immunoprecipitation reaction was dependent on the concentration of Rb added. Full binding of ^35S-labeled RIZ (245-883) was achieved by 10 nM Rb but not 3.3 nM Rb (not shown). […]
Binding between labeled RIZ (1-575) and the glycine mutant with 33 nM Rb was evaluated by immunoprecipitation with anti-Rb antiserum followed by SDS-PAGE and autoradiography.

Another assay addresses T2, full length RIZ (Rattus norvegicus, UniProt Q63755).
T2 construct: made in house; host or cells: in vitro translation (35S label; method not repeated for this protein)
As to the kind of experiment: RIZ homo-oligomer formation. The class given is binding.

For assay [2], the target named is T3, Rb from HT1080 cell extract (Homo sapiens, UniProt P06400).
T3 construct: endogenous in cells; host or cells: HT1080 cells (lysate)
T3 sequence (P06400 1-928): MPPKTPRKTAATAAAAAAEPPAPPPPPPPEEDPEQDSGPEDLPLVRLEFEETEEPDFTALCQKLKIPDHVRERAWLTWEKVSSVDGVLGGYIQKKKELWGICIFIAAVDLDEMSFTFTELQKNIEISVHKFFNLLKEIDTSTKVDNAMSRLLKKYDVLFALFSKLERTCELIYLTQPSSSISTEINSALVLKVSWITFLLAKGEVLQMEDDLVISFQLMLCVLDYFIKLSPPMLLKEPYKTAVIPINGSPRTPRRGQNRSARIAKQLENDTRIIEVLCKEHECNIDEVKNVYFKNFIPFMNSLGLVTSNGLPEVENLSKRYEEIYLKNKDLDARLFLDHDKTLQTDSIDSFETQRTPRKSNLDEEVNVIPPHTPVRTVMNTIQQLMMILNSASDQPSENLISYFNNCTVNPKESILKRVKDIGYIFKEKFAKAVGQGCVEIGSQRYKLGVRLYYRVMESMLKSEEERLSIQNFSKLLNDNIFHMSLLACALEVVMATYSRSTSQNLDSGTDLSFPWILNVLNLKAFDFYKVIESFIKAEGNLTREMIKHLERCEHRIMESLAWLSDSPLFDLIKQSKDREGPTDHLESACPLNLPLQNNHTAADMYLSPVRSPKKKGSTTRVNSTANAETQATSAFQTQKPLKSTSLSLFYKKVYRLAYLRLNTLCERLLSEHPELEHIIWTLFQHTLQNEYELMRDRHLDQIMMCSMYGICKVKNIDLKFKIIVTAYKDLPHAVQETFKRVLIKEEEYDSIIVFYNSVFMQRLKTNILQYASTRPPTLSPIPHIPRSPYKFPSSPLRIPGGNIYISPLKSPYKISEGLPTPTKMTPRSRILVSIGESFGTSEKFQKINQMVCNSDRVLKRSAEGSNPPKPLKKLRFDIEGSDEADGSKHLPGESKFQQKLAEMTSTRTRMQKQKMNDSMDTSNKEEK
As to the kind of experiment: GST-RIZ (215-462) glutathione-agarose pull-down of Rb from cell extract, anti-Rb immunoblot. It is filed as binding. The conditions noted are these: 4 μg GST-RIZ (215-462). As for the experimental part: Rat RIZ was tested for binding to Rb in HT1080 cells (ATCC #ICCL 121). The cells were grown in DMEM supplemented with […]. Cells were lysed in ELB buffer (50 mM HEPES, pH 7.5, 250 mM NaCl, 0.1% NP-40) supplemented with 5 mM EDTA, 50 mM NaF, 1 mM Na orthovanadate, 1 mM of DTT, aprotinin, leupeptin, and PMSF. The lysate was cleared of cell debris by centrifugation at 12,000 rpm for 10 min in a microfuge.
Binding between 4 μg GST-RIZ (215-462) and Rb from HT1080 cell extract was evaluated by first mixing the two, then binding GST-RIZ and any associated Rb to glutathione-agarose beads. The beads were washed in binding buffer and the bound complexes were eluted by boiling in SDS buffer and analyzed by immunoblotting with anti-Rb antiserum. Immunoblotting was performed by standard techniques (see, for example, Harlow and Lane, supra, 1988).
In general terms: Immunoblotting shows a protein as a band on a membrane.

T2 sequence (Q63755 whole entry): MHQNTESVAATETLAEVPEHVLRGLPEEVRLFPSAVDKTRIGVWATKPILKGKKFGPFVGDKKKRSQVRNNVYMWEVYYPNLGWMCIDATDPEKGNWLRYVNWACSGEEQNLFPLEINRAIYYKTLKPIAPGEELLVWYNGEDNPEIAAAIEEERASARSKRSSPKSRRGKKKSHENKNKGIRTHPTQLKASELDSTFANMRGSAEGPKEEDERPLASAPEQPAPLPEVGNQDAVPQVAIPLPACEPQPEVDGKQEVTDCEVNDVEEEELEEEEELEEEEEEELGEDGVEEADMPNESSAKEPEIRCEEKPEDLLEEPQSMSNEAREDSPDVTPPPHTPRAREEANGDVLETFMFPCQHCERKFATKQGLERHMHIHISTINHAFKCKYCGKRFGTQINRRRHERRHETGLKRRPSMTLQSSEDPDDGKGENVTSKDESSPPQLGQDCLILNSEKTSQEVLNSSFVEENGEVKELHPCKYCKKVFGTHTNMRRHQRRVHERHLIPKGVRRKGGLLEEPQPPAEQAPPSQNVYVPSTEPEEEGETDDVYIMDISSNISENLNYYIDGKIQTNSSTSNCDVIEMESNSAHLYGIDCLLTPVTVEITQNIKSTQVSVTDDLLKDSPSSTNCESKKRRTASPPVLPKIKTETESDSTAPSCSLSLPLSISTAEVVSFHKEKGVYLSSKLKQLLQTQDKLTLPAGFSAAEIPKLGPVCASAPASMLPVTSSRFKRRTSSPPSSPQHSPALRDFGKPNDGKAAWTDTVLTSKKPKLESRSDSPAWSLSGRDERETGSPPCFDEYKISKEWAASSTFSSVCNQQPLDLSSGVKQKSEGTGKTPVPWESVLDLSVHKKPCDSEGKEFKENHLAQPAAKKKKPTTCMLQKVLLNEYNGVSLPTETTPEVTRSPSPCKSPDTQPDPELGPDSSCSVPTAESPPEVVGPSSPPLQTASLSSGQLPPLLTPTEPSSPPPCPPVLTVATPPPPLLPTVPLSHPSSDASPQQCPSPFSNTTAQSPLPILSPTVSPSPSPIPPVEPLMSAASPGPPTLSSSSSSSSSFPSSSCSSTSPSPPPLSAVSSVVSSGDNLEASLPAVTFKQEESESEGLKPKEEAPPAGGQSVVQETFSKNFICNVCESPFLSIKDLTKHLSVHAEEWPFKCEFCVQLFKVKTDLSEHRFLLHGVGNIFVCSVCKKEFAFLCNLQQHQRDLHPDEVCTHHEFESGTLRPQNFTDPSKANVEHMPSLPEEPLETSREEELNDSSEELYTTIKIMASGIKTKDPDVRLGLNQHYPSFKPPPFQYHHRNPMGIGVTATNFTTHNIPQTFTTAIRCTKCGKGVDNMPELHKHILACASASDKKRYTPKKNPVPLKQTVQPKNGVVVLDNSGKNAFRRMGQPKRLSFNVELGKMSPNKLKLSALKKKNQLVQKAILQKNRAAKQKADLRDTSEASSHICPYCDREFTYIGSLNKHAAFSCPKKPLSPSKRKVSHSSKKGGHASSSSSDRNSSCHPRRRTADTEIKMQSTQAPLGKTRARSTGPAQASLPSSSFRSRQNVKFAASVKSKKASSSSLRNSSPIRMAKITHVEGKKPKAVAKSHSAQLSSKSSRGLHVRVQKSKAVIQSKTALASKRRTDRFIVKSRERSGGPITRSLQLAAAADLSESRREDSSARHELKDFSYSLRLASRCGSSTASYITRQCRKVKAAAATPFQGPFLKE

Regarding `Nc1ncn([C@@H]2O[C@H](CO)[C@@H](O)[C@H]2O)c(=O)n1` [5-azacytidine], the “effect on reduced expression of RIZ D283 transcripts” value in assay [1] was “unaffected”.

B1: RIZ (1-575): fragment of RIZ from amino acid position 1-575 (protein)
chain: MHQNTESVAATETLAEVPEHVLRGLPEEVRLFPSAVDKTRIGVWATKPILKGKKFGPFVGDKKKRSQVRNNVYMWEVYYPNLGWMCIDATDPEKGNWLRYVNWACSGEEQNLFPLEINRAIYYKTLKPIAPGEELLVWYNGEDNPEIAAAIEEERASARSKRSSPKSRRGKKKSHENKNKGIRTHPTQLKASELDSTFANMRGSAEGPKEEDERPLASAPEQPAPLPEVGNQDAVPQVAIPLPACEPQPEVDGKQEVTDCEVNDVEEEELEEEEELEEEEEEELGEDGVEEADMPNESSAKEPEIRCEEKPEDLLEEPQSMSNEAREDSPDVTPPPHTPRAREEANGDVLETFMFPCQHCERKFATKQGLERHMHIHISTINHAFKCKYCGKRFGTQINRRRHERRHETGLKRRPSMTLQSSEDPDDGKGENVTSKDESSPPQLGQDCLILNSEKTSQEVLNSSFVEENGEVKELHPCKYCKKVFGTHTNMRRHQRRVHERHLIPKGVRRKGGLLEEPQPPAEQAPPSQNVYVPSTEPEEEGETDDVYIMDISSNISENLNYYIDGKIQTNSSTS
For the molecule B1, the “binding to Rb in vitro (FIG. 4)” value with 56 kD fragment of Rb is “specifically binds”.

B2: GST-RIZ (215-462): purified rat RIZ (a.a. position 215-462) fused C-terminal to glutathionine S-transferase (protein)
chain: PLASAPEQPAPLPEVGNQDAVPQVAIPLPACEPQPEVDGKQEVTDCEVNDVEEEELEEEEELEEEEEEELGEDGVEEADMPNESSAKEPEIRCEEKPEDLLEEPQSMSNEAREDSPDVTPPPHTPRAREEANGDVLETFMFPCQHCERKFATKQGLERHMHIHISTINHAFKCKYCGKRFGTQINRRRHERRHETGLKRRPSMTLQSSEDPDDGKGENVTSKDESSPPQLGQDCLILNSEKTSQEVLN
modifications: left off: a dimerising Fc or GST
notes: purified rat RIZ (a.a. position 215-462) fused C-terminal to glutathionine S-transferase
For B2, in the assay with full length RIZ, the “binding to 35S-labeled full length RIZ (homo-oligomer formation)” value is “lack of binding”. The “binding to Rb from HT1080 cell extract” value in assay [2] is reported as “bound to the fastest migrating forms of Rb”.
